# According to patent US20230065495A1, “MULTIPARTITE AND CIRCULARLY PERMUTED BETA-BARREL POLYPEPTIDES AND METHODS FOR THEIR USE” (University of Washington, priority 2020, published 2023):
# B1: mFAP10: canonical, single-chain mFAP, SEQ ID NO: 534 (protein)
# chain: SRAAQLLPGTWQATFTNEDGQTSQGQIHFQPRSPYTMDIVAQGTISDGRPIVGYGKATVKTPDTLDIDITYPSLGNIKAQGQITMDSPTQFKFDATTKGENDFHGRLTGTLQRQE
# Key:
# [1] = Absolute quantum yield (integrating sphere) and brightness; format: physicochemical
# Procedure: Protein preparation. mFAP2a, mFAP2b and mFAP10 were produced by large-scale protein purification^9 and dialyzed overnight into DPBS that was adjusted to pH 7.40 using NaOH.
# Chromophore preparation. DFHBI (Lucerna) and DFHBI-1T (Lucerna) were dissolved to 20.0 mM in 100% DMSO, and diluted in DPBS (pH 7.40) to measure absorbances on a Jasco V-750 spectrophotometer at peak absorbance wavelengths (417 nm for DFHBI and 422 nm for DFHBI-1T). Following background subtraction of identical buffer without chromophore, Beer's Law was used to calculate the molar chromophore concentrations of the stock solutions using previously reported extinction coefficients^5.
# Preparation of protein-chromophore complexes. […]
# Absolute quantum yield. […] Absolute quantum yields were measured for solutions of protein-chromophore complexes in DPBS (pH 7.40) in which ≥95% of the total chromophore was occupying the protein binding pocket (Table 4). Protein-chromophore complex samples and control samples were excited at λex=440 nm and absolute quantum yields were calculated according to the equation: […]
# where fem is the emitted photon flux and fabs is the absorbed photon flux. […] Absolute quantum yield data was analyzed with U6039-05 PLQY measurement software (Table 4; FIG. 8).
# [2] = Chromophore titration with DFHBI; format: binding
# Procedure: (§1) Fluorescence endpoints were measured on a Synergy Neo2™ hybrid multi-mode reader (BioTek) in flat bottom, black polystyrene, non-binding surface 96-well microplates (Corning 3650). In measuring chromophore binding affinities (FIG. 6d,e), mFAP2, mFAP2a, and mFAP2b, and mFAP10 were produced by large-scale protein purification and SEC purification^9. Proteins were aliquoted in eight technical replicates in 200 μL final volumes to 20.0 nM final concentration in ten serial dilutions (√{square root over (10)} dilution factor) of DFHBI starting from 31.6 μM DFHBI or 31.6 μM DFHBI-1T final concentrations, including an eleventh condition without chromophore. Fluorescence was excited at λex=468 nm and fluorescence emission measured at λem=530 nm. Background fluorescence endpoints of wells with identical chromophore concentrations but purified protein replaced with an identical volume of high salt Tev cleavage buffer were measured, and fluorescence endpoints subtracted from those measured with protein. Background-subtracted data were averaged and the means normalized from 0 to 1 and fit to a single binding site isotherm function using non-linear least squares fitting to obtain a fitted Kd value (Table 4), and the fit scaled to the maximum mean value (FIG. 6d,e).
# [3] = Chromophore titration with DFHBI-1T; format: binding
# Procedure: as §1
molecule,measurement,setting,value
B1,brighter fluorescence with DFHBI-1T than DFHBI,[1],~12 fold
same,higher affinity for DFHBI than DFHBI-1T,[2],~2.6 fold
same,Kd,[3],45 nM
